B1: L6.P4A3.1 (antibody, V domains shown)
VH: QVQLVQSGAEVKKPGSSVKVSCKASGGIFSSSAISWVRQAPGQGLEWMGGIIPILDISNYAQKFQGRVTITADKSTSTAFMELSSLRSEDTAVYYCALTNQWDLLVYWGQGTLVTVSS
VL: EIVLTQSPGTLSLSPGERATLSCRASQRVSSSYLAWYQQKPGQAPRLLIYGAESRATGIPDRFSGSGSGTDFTLTISRLEPEDFAVYYCQHYGSSLWTFGQGTKLEIK
B2: L6.P4A3.5 (antibody, V domains shown)
VH: QVQLVQSGAEVKKPGSSVKVSCKAVGGTFSSSAIYWVRQAPGQGLEWMGGIIPILDIANYAQKFQGRVTITADKSTSTAFMELSSLRSEDTAVYYCALRNQWDLVVYWGQGTLVTVSS
VL: EIVLTQSPGTLSLSPGERATLSCHASQSVSSSYLAWYQQKPGQAPRLLIYGAESRATGIPDRFSGSGSGTDFTLTISRLEPEDFAVYYCQHYGSSTWTFGQGTKLEIK
B3: L6.P4A3.9 (antibody, V domains shown)
VH: QVQLVQSGAEVKKPGSSVKVSCKSSGGTFSSSAYSWVRQAPGQGLEWMGTIIPILDITNYAQKFQGRVTITADKSTSTAFMELSSLRSEDTAVYYCAQRNQWDLIVYWGQGTLVTVSS
VL: EIVLTQSPGTLSLSPGERATLSCRASQWVSSSYIAWYQQKPGQAPRLLIYGAESRATGIPDRFSGSGSGTDFTLTISRLEPEDFAVYYCQHYGSSSWTFGQGTKLEIK
B4: L6.P4A3.b (antibody, V domains shown)
VH: QVQLVQSGAEVKKPGSSVKVSCKAPGGTFSSSAISWVRQAPGQGLEWMGGIIPILDITTYAQKFQGRVTITADKSTSTAFMELSSLRSEDTAVYYCALRNQWDLLIYWGQGTLVTVSS
VL: EIVLTQSPGTLSLSPGERATLSCRASQSVSSHYLAWYQQKPGQAPRLLIYGASSRYTGIPDRFSGSGSGTDFTLTISRLEPEDFAVYYCQHYGSSHWTFGQGTKLEIK
B5: L6.P4A3.12 (antibody, V domains shown)
VH: QVQLVQSGAEVKKPGSSVKVSCKASGGLFSSSAISWVRQAPGQGLEWMGGIIPILDITNYAQKFQGRVTITADKSTSTAFMELSSLRSEDTAVYYCALTNQWDLLVYWGQGTLVTVSS
VL: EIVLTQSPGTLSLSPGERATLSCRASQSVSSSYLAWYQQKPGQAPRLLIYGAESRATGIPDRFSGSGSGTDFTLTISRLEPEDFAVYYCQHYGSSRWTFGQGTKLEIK
B6: L6.P4A3.3 (antibody, V domains shown)
VH: QVQLVQSGAEVKKPGSSVKVSCKAPGGTFSSSAISWVRQAPGQGLEWMGGIIPILDITHYAQKFQGRVTITADKSTSTAFMELSSLRSEDTAVYYCALRNQWDLLVYWGQGTLVTVSS
VL: EIVLTQSPGTLSLSPGERATLSCRASQDVSSSYLAWYQQKPGQAPRLLIYGAESRATGIPDRFSGSGSGTDFTLTISRLEPEDFAVYYCQHYGSSEWTFGQGTKLEIK
B7: L6.P4A3.7 (antibody, V domains shown)
VH: QVQLVQSGAEVKKPGSSVKVSCKASGGIFSSSAISWVRQAPGQGLEWMGGIIPILDYTNYAQKFQGRVTITADKSTSTAFMELSSLRSEDTAVYYCALRNQWDLLVYWGQGTLVTVSS
VL: EIVLTQSPGTLSLSPGERATLSCRASQEVSSSYLAWYQQKPGQAPRLLIYGAESRATGIPDRFSGSGSGTDFTLTISRLEPEDFAVYYCQHYGSSAWTFGQGTKLEIK
B8: L6.P4A3.2 (antibody, V domains shown)
VH: QVQLVQSGAEVKKPGSSVKVSCKAPGGTFSSSAISWVRQAPGQGLEWMGTIIPILDITNYAQKFQGRVTITADKSTSTAFMELSSLRSEDTAVYYCAQRNQWDLLVYWGQGTLVTVSS
VL: EIVLTQSPGTLSLSPGERATLSCRASQSVSASYLAWYQQKPGQAPRLLIYGAESRATGIPDRFSGSGSGTDFTLTISRLEPEDFAVYYCQHYGSSRWTFGQGTKLEIK
B9: L6.P4A3.8 (antibody, V domains shown)
VH: QVQLVQSGAEVKKPGSSVKVSCKVSGGTFSSSAISWVRQAPGQGLEWMGKIIPILDITNYAQKFQGRVTITADKSTSTAFMELSSLRSEDTAVYYCALRNQWDLLVYWGQGTLVTVSS
VL: EIVLTQSPGTLSLSPGERATLSCRASQSVSSHYLAWYQQKPGQAPRLLIYGAESRATGIPDRFSGSGSGTDFTLTISRLEPEDFAVYYCQHYGSSPWTFGQGTKLEIK

The source of these data is patent US20230357364A1 (INTERNATIONAL AIDS VACCINE INITIATIVE, published 2023).

In this assay the target is human insulin (human, UniProt P01308 25-54; P01308 90-110). Briefly: polyreactivity ELISA.
Sequence of human insulin (P01308 25-54 limits assumed, chain 1 of 2): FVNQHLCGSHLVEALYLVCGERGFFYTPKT
Sequence of human insulin (P01308 90-110 limits assumed, chain 2 of 2): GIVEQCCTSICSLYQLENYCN
In the case of B1, the binding result is on record as “no binding”.
Under B2 stands “no binding”; under B3, “no binding”; under B4, “no binding”.
Under B5 stands “no binding”; under B6, “no binding”; under B7, “no binding”.
For B8 the value was “no binding”; for B9, “no binding”.
